Square brackets hold non-standard residues; d marks the D form. Ends that are not written are not given here. sY = N[C@@H](Cc1ccc(OS(=O)(=O)O)cc1)C(=O)O; pGlu = O=C1CC[C@@H](C(=O)O)N1
B1: PSGL-1 19ek peptide sulfoglycopeptide-3 (SGP-3) (peptide)
chain: [pGlu]ATE[sY]E[sY]LD[sY]DFLPET(SLeX core2 O‑glycan)EPP
modifications: also: biotinylated at Lys residues when immobilized, site not placed
B2: P-selectin lectin and EGF-like (LE) domains, monomeric (receptor, human, UniProt P16109 42-198, looked up)
chain: WTYHYSTKAYSWNISRKYCQNRYTDLVAIQNKNEIDYLNKVLPYYSSYYWIGIRKNNKTWTWVGTKKALTNEAENWADNEPNNKRNNEDCVEIYIKSPSAPGKWNDEHCLKKKHALCYTASCQDMSCSKQGECLETIGNYTCSCYPGFYGPECEYVR
modifications: three N-linked glycans when expressed in CHO cells; glycosylated form used for BIAcore, N-glycanase-deglycosylated form used for crystals
notes: domain: lectin and EGF-like (LE) domains; also called P-LE; P-selectin lectin/EGF domains

Key:
[1] = biological target: B2; experiment: BIAcore SPR, equilibrium; solution-phase P-LE over immobilized biotinylated SGP-3, 25 °C
Experimental: (§1) Second row, left-to-right: SGP-1 (FIGS. 1C-4), GP-1 (FIGS. 1C-5) and SP-1 (FIGS. 1C-6). […] KDs and standard deviations (shown) were determined by line-fitting of specific binding curves using BIAevaluation software (BIAcore) and are the products of three-to-ten separate experiments.
(§2) Surface plasmon resonance was performed on BIAcore 2000 and 3000 instruments at 25° C. using streptavidin-coated sensor chips (BIAcore) and HBS-P buffer (BIAcore; 10 mM HEPES (pH 7.4), 150 mM NaCl, and 0.005% polysorbate 20 (v/v)) adjusted to 1 mM each CaCl₂ and MgCl₂. The 19ek peptides and sPSGL, a fucosyltransferase-VII modified version of the entire dimeric extracellular domain of PSGL-1 (Croce et al., 1998), were biotinylated at Lys residues with Sulfo-NHS-LC-Biotin (Pierce). Following biotinylation, sPSGL was reacted with immobilized P-selectin in order to isolate functional material (Sako et al., 1995). […] Biotinylated reagents were coated onto sensor chips using HBS-P buffer.

[2] = biological target: T1, PSGL-1 19ek peptide glycopeptide-1 (GP-1) (human, UniProt Q14242 42-60, no tyrosine sulfates; SLe^X-containing core2 O-glycan at Thr-16; biotinylated at Lys residues); experiment: BIAcore SPR, equilibrium; solution-phase P-LE over immobilized biotinylated GP-1
T1 construct: domain: N-terminal 19 amino acids of PSGL-1; Form of SGP-3 containing no tyrosine sulfates
T1 sequence (Q14242 42-60, looked up): QATEYEYLDYDFLPETEPP
Experimental: as §1, §2

[3] = biological target: T2, PSGL-1 19ek peptide SGP-1 (monosulfated form of SGP-3) (human, UniProt Q14242 42-60, one tyrosine sulfate (position not resolved; every permutation present); SLe^X-containing core2 O-glycan at Thr-16; biotinylated at Lys residues); experiment: BIAcore SPR, equilibrium; solution-phase P-LE over immobilized biotinylated SGP-1
T2 construct: domain: N-terminal 19 amino acids of PSGL-1; Same polypeptide as SGP-3, less modified; also called monosulfated species
T2 sequence (Q14242 42-60, looked up): QATEYEYLDYDFLPETEPP
Experimental: as §1, §2

[4] = biological target: T3, PSGL-1 19ek peptide SGP-2 (disulfated form of SGP-3) (human, UniProt Q14242 42-60, two tyrosine sulfates (positions not resolved; every permutation present); SLe^X-containing core2 O-glycan at Thr-16; biotinylated at Lys residues); experiment: BIAcore SPR, equilibrium; solution-phase P-LE over immobilized biotinylated SGP-2
T3 construct: domain: N-terminal 19 amino acids of PSGL-1; Same polypeptide as SGP-3, less modified; also called disulfated species
T3 sequence (Q14242 42-60, looked up): QATEYEYLDYDFLPETEPP
Experimental: as §1, §2

[5] = biological target: T4, PSGL-1 19ek peptide sulfopeptide-1 (SP-1) (human, UniProt Q14242 42-60, tyrosine sulfated; no carbohydrate; biotinylated at Lys residues); experiment: BIAcore SPR, equilibrium; solution-phase P-LE over immobilized biotinylated SP-1
T4 construct: domain: N-terminal 19 amino acids of PSGL-1; Form of SGP-3 containing no carbohydrate
T4 sequence (Q14242 42-60, looked up): QATEYEYLDYDFLPETEPP
Experimental: as §1, §2

Binder	Kd [1] [µM]	Kd [2] [µM]	Kd [3] [µM]	Kd [4] [µM]	Kd [5] [µM]
B1	0.778	–	–	–	–
B2	–	~31.1	12.3	2.88	~113

Source: US20040096894A1 (published 2004)
